Assay results taken from patent US7485618B2, “FGF-5 supported and binding peptides” (Genencor International, Inc., priority 2003, dated 2009).

Molecular target: T1, FGF-5 (Homo sapiens, UniProt P12034)
T1 construct: host or cells: FGF-5 added exogenously to NR6R-3T3 murine fibroblasts
T1 sequence (P12034 21-268): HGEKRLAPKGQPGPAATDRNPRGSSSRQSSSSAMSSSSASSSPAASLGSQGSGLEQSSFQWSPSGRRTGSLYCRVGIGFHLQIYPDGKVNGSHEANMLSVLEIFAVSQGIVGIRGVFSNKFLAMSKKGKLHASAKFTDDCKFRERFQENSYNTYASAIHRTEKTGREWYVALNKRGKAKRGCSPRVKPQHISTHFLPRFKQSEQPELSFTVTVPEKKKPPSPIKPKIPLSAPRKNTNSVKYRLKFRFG
Assay: BLA binding assay on FGF-5 coated plates, nitrocefin readout
Settings: purified peptide-BLA fusions at 0.1 nM, bound to FGF-5
Experimental: This Example describes secondary screening methods used to analyze FGF-5 binding npeptides. Individual clones were picked and grown up in 5 ml LB+5 ppm CMP overnight at 37° C. The cell pastes were then treated with 125μ of B-PER reagent (Pierce) for 30 min with slow mixing. COSTAR plates (96-well) were coated with 0.1 μg (100 μl of 1 μg/ml) FGF-5, carrier-free (R&D Systems #237-F5/CF, Lot #GQ18304A) with gentle rocking at 4° C. overnight, followed by blocking with Superblock blocking buffer (Pierce) for several hours at room temperature. Then, 100 μl B-Per treated supernatant from individual clones from pGV02-L were added to the FGF-5 coated plates. After one hour, plates were washed six times with PBS, 0.05% TWEEN®-20 and 200 μl of nitrocefin assay buffer containing 0.1 mg/ml nitrocefin (Oxoid) was added to measure residual bound beta-lactamase activity, using Abs490/min. Control wells contained pCB04 (See, FIG. 1C) beta-lactamase as a control. […]
Cell pastes were harvested from the 200 ml cell cultures described in Example 6, by centrifugation at 3,000×g for 10 min. […] BLA activity of all liquid fractions was assayed using nitrocefin, and the concentration of fusion proteins in each fraction was calculated assuming the same specific activity as the WT enzyme. […]

B1: WT (wild-type): Wild-type BLA (E. cloaceae beta-lactamase) without peptide, control for binding of the fusions (protein)
chain: TPVSEKQLAEVVANTITPLMKAQSVPGMAVAVIYQGKPHYYTFGKADIAANKPVTPQTLFELGSISKTFTGVLGGDAIARGEISLDDAVTRYWPQLTGKQWQGIRMLDLATYTAGGLPLQVPDEVTDNASLLRFYQNWQPQWKPGTTRLYANASIGLFGALAVKPSGMPYEQAMTTRVLKPLKLDHTWINVPKAEEAHYAWGYRDGKAVRVSPGMLDAQAYGVKTNVQDMANWVMANMAPENVADASLKQGIALAQSRYWRIGSMYQGLGWEMLNWPVEANTVVEGSDSKVALAPLPVAEVNPPAPPVKASWVHKTGSTGGFGSYVAFIPEKQIGIVMLANTSYPNPARVEAAYHILEALQ
- Percent Bound at 0.1 nM: 0.4%
